According to PMC5625841 (Cell, 2017):
Values belong to the molecule of their own block, whether it stands above or below them.

Tests used:
[1] = target: taxol-stabilized microtubules; assay: single-molecule TIRF binding density on microtubules
cryo-EM structure = target: the molecule itself; assay: cryo-EM structure
[2] = target: Dyn^wt-M, monomeric S. cerevisiae cytoplasmic dynein construct lacking GST, wild type AAA3 (S. cerevisiae) (UniProt P36022); assay: cryo-EM structure
[3] = target: Dyn^WB-M, monomeric S. cerevisiae dynein construct with a Walker B mutation in AAA3 (S. cerevisiae); assay: cryo-EM structure

Sequence of Dyn^wt-M, monomeric S. cerevisiae cytoplasmic dynein construct lacking GST, wild type AAA3 (S. cerevisiae) (P36022 whole entry): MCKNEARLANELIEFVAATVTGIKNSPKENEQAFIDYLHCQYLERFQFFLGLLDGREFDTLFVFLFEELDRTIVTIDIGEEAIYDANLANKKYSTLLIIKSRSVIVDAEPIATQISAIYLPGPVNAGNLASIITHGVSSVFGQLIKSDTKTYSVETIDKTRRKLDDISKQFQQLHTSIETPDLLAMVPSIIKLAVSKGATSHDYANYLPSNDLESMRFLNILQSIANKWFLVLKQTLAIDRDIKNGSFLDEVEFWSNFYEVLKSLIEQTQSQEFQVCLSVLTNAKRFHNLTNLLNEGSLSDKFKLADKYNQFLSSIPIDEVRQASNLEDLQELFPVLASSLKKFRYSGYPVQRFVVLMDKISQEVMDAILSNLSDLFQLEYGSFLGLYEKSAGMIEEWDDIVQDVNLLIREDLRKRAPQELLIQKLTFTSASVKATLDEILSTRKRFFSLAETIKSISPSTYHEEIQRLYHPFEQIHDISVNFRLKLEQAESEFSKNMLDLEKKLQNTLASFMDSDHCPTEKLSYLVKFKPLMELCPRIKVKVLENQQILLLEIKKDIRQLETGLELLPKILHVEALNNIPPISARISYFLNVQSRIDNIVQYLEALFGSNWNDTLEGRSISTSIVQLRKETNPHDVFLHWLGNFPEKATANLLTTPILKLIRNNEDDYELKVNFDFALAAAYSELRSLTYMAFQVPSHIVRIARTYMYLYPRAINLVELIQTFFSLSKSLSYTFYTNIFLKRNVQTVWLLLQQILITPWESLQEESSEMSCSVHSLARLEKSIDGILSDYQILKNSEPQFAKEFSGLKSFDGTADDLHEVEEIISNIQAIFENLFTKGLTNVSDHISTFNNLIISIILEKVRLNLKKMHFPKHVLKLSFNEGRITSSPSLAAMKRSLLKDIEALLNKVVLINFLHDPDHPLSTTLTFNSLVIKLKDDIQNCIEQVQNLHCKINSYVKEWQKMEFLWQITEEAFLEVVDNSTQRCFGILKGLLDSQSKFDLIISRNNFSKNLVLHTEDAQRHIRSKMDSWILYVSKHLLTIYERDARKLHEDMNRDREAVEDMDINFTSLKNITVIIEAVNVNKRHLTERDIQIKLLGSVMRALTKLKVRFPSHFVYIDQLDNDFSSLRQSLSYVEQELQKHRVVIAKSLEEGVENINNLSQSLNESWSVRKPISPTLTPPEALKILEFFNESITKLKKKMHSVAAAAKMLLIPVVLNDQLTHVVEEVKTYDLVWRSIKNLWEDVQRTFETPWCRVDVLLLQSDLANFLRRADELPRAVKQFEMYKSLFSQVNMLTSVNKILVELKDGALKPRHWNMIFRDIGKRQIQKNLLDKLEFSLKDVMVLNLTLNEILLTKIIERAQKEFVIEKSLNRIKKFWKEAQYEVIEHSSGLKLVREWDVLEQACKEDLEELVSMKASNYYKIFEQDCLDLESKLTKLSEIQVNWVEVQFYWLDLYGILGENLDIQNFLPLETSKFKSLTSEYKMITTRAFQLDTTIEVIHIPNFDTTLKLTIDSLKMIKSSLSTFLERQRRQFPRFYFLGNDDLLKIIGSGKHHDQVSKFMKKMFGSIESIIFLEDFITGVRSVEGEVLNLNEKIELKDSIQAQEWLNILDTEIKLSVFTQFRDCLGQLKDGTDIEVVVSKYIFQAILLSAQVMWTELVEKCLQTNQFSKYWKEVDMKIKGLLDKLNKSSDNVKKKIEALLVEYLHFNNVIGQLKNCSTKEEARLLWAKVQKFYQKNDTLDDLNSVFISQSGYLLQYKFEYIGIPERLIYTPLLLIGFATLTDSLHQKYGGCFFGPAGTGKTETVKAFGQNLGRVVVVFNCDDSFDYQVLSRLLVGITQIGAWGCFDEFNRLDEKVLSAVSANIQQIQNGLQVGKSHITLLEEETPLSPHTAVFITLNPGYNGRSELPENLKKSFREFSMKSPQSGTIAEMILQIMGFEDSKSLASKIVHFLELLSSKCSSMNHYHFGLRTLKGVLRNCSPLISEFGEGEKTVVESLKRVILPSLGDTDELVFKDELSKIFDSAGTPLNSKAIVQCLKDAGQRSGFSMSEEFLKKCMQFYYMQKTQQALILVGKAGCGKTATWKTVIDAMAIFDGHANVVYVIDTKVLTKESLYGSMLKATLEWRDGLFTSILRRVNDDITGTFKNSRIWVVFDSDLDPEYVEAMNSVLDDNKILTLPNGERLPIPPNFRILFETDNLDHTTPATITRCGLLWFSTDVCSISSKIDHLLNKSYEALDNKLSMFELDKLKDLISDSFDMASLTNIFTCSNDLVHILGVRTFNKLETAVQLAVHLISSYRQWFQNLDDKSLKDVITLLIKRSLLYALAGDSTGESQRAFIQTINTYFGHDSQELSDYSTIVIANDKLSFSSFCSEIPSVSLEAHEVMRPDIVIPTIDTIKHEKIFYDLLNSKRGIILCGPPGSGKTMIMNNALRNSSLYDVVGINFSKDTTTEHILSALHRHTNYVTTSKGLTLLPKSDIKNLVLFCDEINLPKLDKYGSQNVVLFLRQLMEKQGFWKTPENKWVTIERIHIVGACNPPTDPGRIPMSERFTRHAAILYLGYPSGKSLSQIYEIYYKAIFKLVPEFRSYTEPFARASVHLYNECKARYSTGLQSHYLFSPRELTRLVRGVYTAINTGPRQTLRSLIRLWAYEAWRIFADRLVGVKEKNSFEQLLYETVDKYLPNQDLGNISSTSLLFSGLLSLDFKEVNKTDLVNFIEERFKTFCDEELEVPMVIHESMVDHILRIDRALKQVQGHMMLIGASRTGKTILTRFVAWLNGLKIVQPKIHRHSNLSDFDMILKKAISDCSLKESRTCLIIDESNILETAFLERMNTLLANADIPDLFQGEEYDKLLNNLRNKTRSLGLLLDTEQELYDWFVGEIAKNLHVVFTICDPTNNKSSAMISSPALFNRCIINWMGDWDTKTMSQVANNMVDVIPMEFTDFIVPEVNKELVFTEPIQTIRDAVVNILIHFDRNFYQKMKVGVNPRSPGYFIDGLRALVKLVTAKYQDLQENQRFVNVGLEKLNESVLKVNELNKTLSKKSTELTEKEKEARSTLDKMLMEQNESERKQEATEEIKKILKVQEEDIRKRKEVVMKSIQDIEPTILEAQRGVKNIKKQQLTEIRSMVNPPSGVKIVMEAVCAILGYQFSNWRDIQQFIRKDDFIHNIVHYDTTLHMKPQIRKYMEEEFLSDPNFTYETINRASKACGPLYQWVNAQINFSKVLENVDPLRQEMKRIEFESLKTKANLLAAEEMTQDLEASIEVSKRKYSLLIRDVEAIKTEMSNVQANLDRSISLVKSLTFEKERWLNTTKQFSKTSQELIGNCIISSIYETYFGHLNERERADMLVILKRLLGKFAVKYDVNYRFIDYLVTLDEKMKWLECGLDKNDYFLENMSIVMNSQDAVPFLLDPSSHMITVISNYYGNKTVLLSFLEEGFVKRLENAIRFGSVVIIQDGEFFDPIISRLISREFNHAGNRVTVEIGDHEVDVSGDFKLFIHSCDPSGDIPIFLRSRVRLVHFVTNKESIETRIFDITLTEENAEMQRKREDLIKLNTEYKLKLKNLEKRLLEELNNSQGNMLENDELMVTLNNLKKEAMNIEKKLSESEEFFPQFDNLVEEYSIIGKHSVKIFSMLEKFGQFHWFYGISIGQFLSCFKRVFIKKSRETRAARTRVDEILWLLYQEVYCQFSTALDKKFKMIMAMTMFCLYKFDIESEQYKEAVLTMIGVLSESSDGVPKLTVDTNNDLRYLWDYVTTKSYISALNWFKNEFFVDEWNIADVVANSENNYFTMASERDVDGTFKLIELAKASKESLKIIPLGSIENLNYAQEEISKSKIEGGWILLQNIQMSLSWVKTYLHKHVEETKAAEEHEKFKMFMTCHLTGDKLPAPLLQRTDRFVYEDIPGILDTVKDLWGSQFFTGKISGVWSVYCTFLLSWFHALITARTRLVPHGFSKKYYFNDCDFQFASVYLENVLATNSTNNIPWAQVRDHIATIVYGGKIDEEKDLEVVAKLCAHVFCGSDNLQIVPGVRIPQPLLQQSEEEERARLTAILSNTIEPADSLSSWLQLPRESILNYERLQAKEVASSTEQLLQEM

decrease of binding density on MTs with 300 nM Lis1 against no Lis1 [1]: 42%
Molecule: Dyn^WB, GST-dimerized S. cerevisiae dynein construct with a Walker B mutation in AAA3 (domain or fragment)

increase of binding density on MTs with 300 nM Lis1 against no Lis1 [1]: 62%
Molecule: Dyn^WA, GST-dimerized S. cerevisiae dynein construct with a Walker A mutation in AAA3 (domain or fragment)

stoichiometry N (Lis1 β-propeller per dynein) [2]: 1
stoichiometry N (Lis1 β-propellers per dynein) [3]: 2
B1: Lis1 (S. cerevisiae), dimer (natural protein, UniProt P39946 1-494, looked up)
chain: MTNWQQQLPLTDTQKNELDKSVLRYLNWNYKQTVRHEHAQDYESVRHAIVTLSGFLLQESVDRQEFISNNDTSNESMVDIDELLLPKKWNSIVRLQKKIIELEQNTETLVSQIKDLNTQVSELAQFKPTTSNGTSAHNVLKWIPRNLPSCLINVESSVTSVKLHPNLPIVFVATDHGKLYAFDLFNYTIPLASLQSHTKAITSMDVLFTNYTNSSKKNYLVIVTASKDLQIHVFKWVSEECKFQQIRSLLGHEHIVSAVKIWQKNNDVHIASCSRDQTVKIWDFHNGWSLKTFQPHSQWVRSIDVLGDYIISGSHDTTLRLTHWPSGNGLSVGTGHEFPIEKVKFIHFIEDSPEIRFRTPSTDRYKNWGMQYCVSASRDRTIKIWEIPLPTLMAHRAPIPNPTDSNFRCVLTLKGHLSWVRDISIRGQYLFSCADDKSVRCWDLNTGQCLHVWEKLHTGFVNCLDLDVDFDSNVTPRQMMVTGGLDCKSNVFMR
binding result (cryo-EM structure): binds
